Assay results published in the supplement of paper PMC9112550, “Optimization of the antimicrobial peptide Bac7 by deep mutational scanning” (BMC Biology, 2022).

The sequences below were run on Escherichia coli TOP10 (assay: shrunken log2 fold change of peptide-encoding DNA abundance (4.5 h post-induction vs induction); higher = less antimicrobial activity (less host growth inhibition)). Conditions: time post-induction: 4.5 h; library: site-saturation at positions 5, 18, 19, 20.
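Also: peptides expressed intracellularly from a pBAD plasmid library in pooled LB shake-flask culture, induced with 0.3% L-arabinose, DNA abundance read by NGS, three biological replicates, DESeq2 with apeglm shrinkage.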

Sequence	shrunken log2 fold change
RRIRCRPPRLPRPRPRPICYPRP	-0.358
RRIRYRPPRLPRPRPRPHQMPRP	-0.0207
RRIRMRPPRLPRPRPRPQHAPRP	0.0286
RRIRFRPPRLPRPRPRPICDPRP	0.0526
RRIRIRPPRLPRPRPRPAGCPRP	-0.0691
RRIRCRPPRLPRPRPRPGCAPRP	0.593
RRIRFRPPRLPRPRPRPKYEPRP	-0.063
RRIRSRPPRLPRPRPRPWFAPRP	-0.00302
RRIRIRPPRLPRPRPRPGMAPRP	0.006
RRIRHRPPRLPRPRPRPPLIPRP	-0.0533
RRIRRRPPRLPRPRPRPWAIPRP	-0.0356
RRIRKRPPRLPRPRPRPEWKPRP	0.0315
RRIRYRPPRLPRPRPRPCGYPRP	-0.467
RRIRRRPPRLPRPRPRPKNKPRP	0.294
RRIRHRPPRLPRPRPRPNPVPRP	-0.312
RRIRNRPPRLPRPRPRPPMMPRP	0.0507
RRIRPRPPRLPRPRPRPIIDPRP	-0.297
RRIRKRPPRLPRPRPRPTLNPRP	0.505
RRIRYRPPRLPRPRPRPPWNPRP	-0.161
RRIRRRPPRLPRPRPRPCCKPRP	-0.0824
RRIRIRPPRLPRPRPRPAHDPRP	0.0246
RRIRYRPPRLPRPRPRPFYKPRP	-0.00388
RRIRNRPPRLPRPRPRPAWCPRP	0.0129
RRIRYRPPRLPRPRPRPAVVPRP	-0.149
RRIRQRPPRLPRPRPRPWDTPRP	0.14

Sequence	shrunken log2 fold change
RRIRSRPPRLPRPRPRPQDNPRP	-0.362
RRIRNRPPRLPRPRPRPQSVPRP	-0.0373
RRIRDRPPRLPRPRPRPPVIPRP	0.0554
RRIRHRPPRLPRPRPRPDVRPRP	-0.00783
RRIRWRPPRLPRPRPRPTARPRP	0.0278
RRIRVRPPRLPRPRPRPYNWPRP	-0.603
RRIRHRPPRLPRPRPRPMHVPRP	-0.0591
RRIRNRPPRLPRPRPRPFNYPRP	-0.752
RRIRNRPPRLPRPRPRPAMFPRP	-0.204
RRIRSRPPRLPRPRPRPRLGPRP	0.468
RRIRARPPRLPRPRPRPQLLPRP	0.527
RRIRLRPPRLPRPRPRPIPAPRP	-0.112
RRIRMRPPRLPRPRPRPGRDPRP	1.4
RRIRWRPPRLPRPRPRPVEYPRP	-0.00674
RRIRSRPPRLPRPRPRPFKVPRP	-0.0212
RRIRERPPRLPRPRPRPCGNPRP	-0.00264
RRIRKRPPRLPRPRPRPKNGPRP	0.173
RRIRYRPPRLPRPRPRPPYTPRP	-0.94
RRIRGRPPRLPRPRPRPRCRPRP	0.957
RRIRCRPPRLPRPRPRPFGMPRP	-0.033
RRIRFRPPRLPRPRPRPRVYPRP	-0.217
RRIRDRPPRLPRPRPRPYIFPRP	3.58
RRIRVRPPRLPRPRPRPHCTPRP	-1.21
RRIRNRPPRLPRPRPRPWPEPRP	-0.0309
RRIRFRPPRLPRPRPRPICVPRP	-0.161

Sequence	shrunken log2 fold change
RRIRLRPPRLPRPRPRPRKGPRP	0.0226
RRIRTRPPRLPRPRPRPCPDPRP	-0.283
RRIRIRPPRLPRPRPRPEAYPRP	0.00489
RRIRVRPPRLPRPRPRPPQLPRP	0.0208
RRIRHRPPRLPRPRPRPKRKPRP	0.0863
RRIRGRPPRLPRPRPRPLTRPRP	0.803
RRIRLRPPRLPRPRPRPSCKPRP	0.0208
RRIRRRPPRLPRPRPRPLWNPRP	0.117
RRIRQRPPRLPRPRPRPFSDPRP	-0.00196
RRIRIRPPRLPRPRPRPEEWPRP	-0.128
RRIRYRPPRLPRPRPRPVPDPRP	-0.0838
RRIRTRPPRLPRPRPRPLIPPRP	-0.106
RRIRFRPPRLPRPRPRPDYWPRP	-0.142
RRIRCRPPRLPRPRPRPGWVPRP	0.513
RRIRVRPPRLPRPRPRPRKPPRP	0.0947
RRIRERPPRLPRPRPRPCFHPRP	-0.327
RRIRHRPPRLPRPRPRPWKEPRP	-0.0223
RRIRYRPPRLPRPRPRPTCGPRP	0.0163
RRIRWRPPRLPRPRPRPPGQPRP	0.123
RRIRNRPPRLPRPRPRPHQAPRP	-0.0146
RRIRVRPPRLPRPRPRPCNTPRP	-0.586
RRIRGRPPRLPRPRPRPILSPRP	0.516
RRIRVRPPRLPRPRPRPYPLPRP	-0.478
RRIRVRPPRLPRPRPRPGMDPRP	0.225
RRIRNRPPRLPRPRPRPIMTPRP	-0.269
